# Where two headings read alike, the source gives them in different places.
# Columns and labels:
# [1] = Ex vivo hydrolysis in rat plasma at 37° C.; assay type: in vitro ADME; settings: Table 2 conjugates, average of three experiments ± s. d.
# Procedure: Experiments using rat plasma were conducted in similar fashion to the esterase hydrolysis experiments. A stock, or reference, solution of each conjugate was made that was ˜15 mg/mL in DMSO. Two hundred microliters of stock were added to 800 μL 50 mM PBS buffer. Fifty microliters of this latter solution were added to 950 μL rat plasma and placed at 37° C. in a reciprocal waterbath shaker. At the appropriate time intervals, a 50 μl, aliquot was taken, added to 100 μl, ACN, and vigorously vortexed for 1 minute. The sample was centrifuged at 10,000 rpm for 5 minutes and 50 μL, of supernatant was then injected for HPLC analysis. A calibration curve for measuring the concentration of each conjugate was made.
# [2] = target: T1, rabbit liver carboxylesterase (Oryctolagus cuniculus, UniProt P12337); experiment: in vitro; settings: purified rabbit liver carboxylesterase in PBS buffer, pH 7.4
# T1 sequence (P12337 19-565): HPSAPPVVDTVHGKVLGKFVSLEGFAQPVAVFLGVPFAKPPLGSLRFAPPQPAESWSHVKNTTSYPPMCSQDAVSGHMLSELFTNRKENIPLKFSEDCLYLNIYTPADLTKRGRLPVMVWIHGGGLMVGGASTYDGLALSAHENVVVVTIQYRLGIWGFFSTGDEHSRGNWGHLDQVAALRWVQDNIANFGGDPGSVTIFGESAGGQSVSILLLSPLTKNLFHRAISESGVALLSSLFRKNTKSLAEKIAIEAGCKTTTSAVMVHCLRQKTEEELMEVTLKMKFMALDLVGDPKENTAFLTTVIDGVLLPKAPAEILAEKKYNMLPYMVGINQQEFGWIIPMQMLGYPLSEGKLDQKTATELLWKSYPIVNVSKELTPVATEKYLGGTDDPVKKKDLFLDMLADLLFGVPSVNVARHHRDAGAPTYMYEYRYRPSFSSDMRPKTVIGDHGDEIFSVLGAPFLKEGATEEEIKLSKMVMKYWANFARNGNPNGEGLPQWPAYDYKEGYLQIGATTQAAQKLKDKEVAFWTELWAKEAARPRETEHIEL
# Procedure: (§1) Stock, or reference, solutions of hydrolyzable conjugates were first prepared at ˜2 mg/mL in DMSO. Working solutions of the hydrolyzable conjugates were then prepared in triplicate (working solutions A). Fifty microliters of stock conjugate were added to 5.0 mL 50 mM PBS buffer.
# (§2) A stock solution of carboxylesterase was prepared by adding ˜2 mg esterase to 2.0 mL 50 mM PBS buffer. A working solution of carboxylesterase was prepared by diluting 50 uL of the stock solution with 5.0 mL 50 mM PBS buffer (working solution B).
# (§3) Five hundred microliters of working solution B were then added to each working solution A (0.5 units enzyme and between 10-20 μM conjugate). The reaction mixtures were immediately vortexed and sampled for a time=0 analysis. The reaction solutions were incubated at 37° C. in a reciprocal waterbath shaker. At appropriate time intervals during incubation, 75 μL aliquots were taken and injected directly on HPLC for hydrolysis rate data. With each experiment, a new calibration curve for the particular conjugate was made.
# (§4) The pseudo first-order rate constant, or “k”, is obtained from the slope of the natural log of the concentration of the conjugate versus time curve. The half-life is then calculated from k.
# [3] = target: T1, rabbit liver carboxylesterase; settings: pH 7.4
# Procedure: as §1, §2, §3, §4
Structure (SMILES),half-life at […] [1],half-life [2],t1/2 [1],half-life [1],half-life [3]
COCCOCCOCCOCCOc1ccc(OC(=O)N[C@@H](Cc2ccc(O)cc2)C(=O)NCC(=O)NCC(=O)N[C@@H](Cc2ccccc2)C(=O)N[C@@H](CC(C)C)C(=O)O)cc1,0.912 ± 0.0723 h,6.9 ± 0.1 h,,,
CCCCCCCCCCCCOCCOCCOCCOCCOCCOCCOCCOCCOc1ccc(OC(=O)N[C@@H](Cc2ccc(O)cc2)C(=O)NCC(=O)NCC(=O)N[C@@H](Cc2ccccc2)C(=O)N[C@@H](CC(C)C)C(=O)O)cc1,2.33 ± 0.0723 h,10.4 ± 0.9 h,,,
COCCOCCOCCOCCNC(=O)c1ccc(OC(=O)N[C@@H](Cc2ccc(O)cc2)C(=O)NCC(=O)NCC(=O)N[C@@H](Cc2ccccc2)C(=O)N[C@@H](CC(C)C)C(=O)O)cc1,,0.04 ± 0.17 h,~Immediate Hydrolysis,,
COCCOCCOCCOCCOC(=O)NC(Cc1ccc(OC(=O)N[C@@H](Cc2ccc(O)cc2)C(=O)NCC(=O)NCC(=O)N[C@@H](Cc2ccccc2)C(=O)N[C@@H](CC(C)C)C(=O)O)cc1)C(=O)OC (some centres unmarked),0.251 ± 0.0772 h,1.3 ± 0.04 h,,,
COCCOCCOCCOCCNC(=O)c1cc(OC(=O)N[C@@H](Cc2ccc(O)cc2)C(=O)NCC(=O)NCC(=O)N[C@@H](Cc2ccccc2)C(=O)N[C@@H](CC(C)C)C(=O)O)cc(C(=O)NCCOCCOCCOCCOC)c1,,0.03 ± 0.12 h,~Immediate Hydrolysis,,
COCCOCCOCCOCCOc1ccc(OC(=O)N[C@@H](Cc2ccc(O)cc2)C(=O)NCC(=O)NCC(=O)N[C@@H](Cc2ccccc2)C(=O)N[C@@H](CC(C)C)C(=O)O)cc1OCCOC,,,,0.354 ± 0.0667 h,2.7 ± 0.2 h
COCCOCCOCCOCCOCc1ccc(OC(=O)N[C@@H](Cc2ccc(O)cc2)C(=O)NCC(=O)NCC(=O)N[C@@H](Cc2ccccc2)C(=O)N[C@@H](CC(C)C)C(=O)O)cc1,0.027 ± 0.00733 h,1.4 ± 0.1 h,,,

# From patent US8143366B2, “Aryl carbamate oligomers for hydrolyzable prodrugs and prodrugs comprising same” (priority 2003, dated 2012)
